The source of these data is US20170044259A1 (CYTOMX THERAPEUTICS, published 2017).

The target in assay [1] is T1, human PD-1-Fc (R and D systems, Minneapolis, Minn.) (human, UniProt Q15116 25-167).
T1 construct: bought; also called hPD-1-Fc; hPD-1; not shown: Fc part of the bought fusion
Nature of the assay: plate ELISA on human PD-1-Fc; apparent KD.

In assay [2] the target is T1, human PD-1-Fc (R and D systems, …). Nature of the assay: plate ELISA on human PD-1-Fc; reference A1.5.

T1 sequence (Q15116 25-167 limits assumed): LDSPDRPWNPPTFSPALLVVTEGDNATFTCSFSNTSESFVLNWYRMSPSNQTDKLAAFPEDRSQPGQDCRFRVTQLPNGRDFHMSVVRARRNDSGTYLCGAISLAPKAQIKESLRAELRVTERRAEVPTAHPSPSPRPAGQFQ

B1: PD-1 1.5 PD010 2001 (antibody, human IgG4 S228P, kappa)
heavy: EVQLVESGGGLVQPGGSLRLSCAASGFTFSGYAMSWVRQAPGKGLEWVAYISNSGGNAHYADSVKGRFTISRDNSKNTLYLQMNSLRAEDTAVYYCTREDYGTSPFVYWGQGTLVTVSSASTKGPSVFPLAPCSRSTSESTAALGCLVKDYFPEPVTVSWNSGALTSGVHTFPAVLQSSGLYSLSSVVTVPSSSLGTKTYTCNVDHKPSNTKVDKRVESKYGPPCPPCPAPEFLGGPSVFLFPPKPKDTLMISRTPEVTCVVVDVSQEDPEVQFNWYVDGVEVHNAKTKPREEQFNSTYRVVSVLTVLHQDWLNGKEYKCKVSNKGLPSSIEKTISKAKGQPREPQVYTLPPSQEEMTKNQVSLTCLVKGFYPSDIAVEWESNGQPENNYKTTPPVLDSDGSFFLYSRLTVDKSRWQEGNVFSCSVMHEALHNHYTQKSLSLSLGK
light: QGQSGQGGLCSWYLSSSGLCVDGGGSSGGSISSGLLSGRSDNHGGGSDIQLTQSPSSLSASVGDRVTITCRASESVDAYGISFMNWFQQKPGKAPKLLIYAASNQGSGVPSRFSGSGSGTDFTLTISSMQPEDFATYYCQQSKDVPWTFGQGTKLEIKRTVAAPSVFIFPPSDEQLKSGTASVVCLLNNFYPREAKVQWKVDNALQSGNSQESVTEQDSKDSTYSLSSTLTLSKADYEKHKVYACEVTHQGLSSPVTKSFNRGEC
Consider B1, for which the Kd in assay [1] is 0.054 µM. In addition, the “Masking Efficiency” value in assay [2] is 30.

B2: PD-1 1.5 PD014 2001 (antibody, human IgG4 S228P, kappa)
heavy: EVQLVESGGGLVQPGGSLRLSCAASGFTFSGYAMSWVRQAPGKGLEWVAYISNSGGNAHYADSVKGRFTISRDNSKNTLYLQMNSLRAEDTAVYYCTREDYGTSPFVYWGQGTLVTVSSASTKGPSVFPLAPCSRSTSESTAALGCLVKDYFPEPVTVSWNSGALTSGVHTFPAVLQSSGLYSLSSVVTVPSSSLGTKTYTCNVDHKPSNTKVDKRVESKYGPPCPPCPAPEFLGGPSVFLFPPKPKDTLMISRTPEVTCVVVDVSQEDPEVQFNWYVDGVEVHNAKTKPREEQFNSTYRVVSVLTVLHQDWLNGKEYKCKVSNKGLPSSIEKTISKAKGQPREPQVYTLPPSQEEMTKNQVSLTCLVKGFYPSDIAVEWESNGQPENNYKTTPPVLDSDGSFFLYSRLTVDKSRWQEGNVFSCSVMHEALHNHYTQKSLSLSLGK
light: QGQSGQGMSHCWMFSSSCDGVKGGGSSGGSISSGLLSGRSDNHGGGSDIQLTQSPSSLSASVGDRVTITCRASESVDAYGISFMNWFQQKPGKAPKLLIYAASNQGSGVPSRFSGSGSGTDFTLTISSMQPEDFATYYCQQSKDVPWTFGQGTKLEIKRTVAAPSVFIFPPSDEQLKSGTASVVCLLNNFYPREAKVQWKVDNALQSGNSQESVTEQDSKDSTYSLSSTLTLSKADYEKHKVYACEVTHQGLSSPVTKSFNRGEC
For the molecule B2, the Kd in assay [1] stood at 0.1 µM. Further, the “Masking Efficiency” value in assay [2] worked out at 56.

B3: PD-1 1.5 PD023 2001 (antibody, human IgG4 S228P, kappa)
heavy: not shown
light: QGQSGQGSMAGCQWSSFCVQRDGGGSSGGSISSGLLSGRSDNHGGGSDIQLTQSPSSLSASVGDRVTITCRASESVDAYGISFMNWFQQKPGKAPKLLIYAASNQGSGVPSRFSGSGSGTDFTLTISSMQPEDFATYYCQQSKDVPWTFGQGTKLEIKRTVAAPSVFIFPPSDEQLKSGTASVVCLLNNFYPREAKVQWKVDNALQSGNSQESVTEQDSKDSTYSLSSTLTLSKADYEKHKVYACEVTHQGLSSPVTKSFNRGEC
For B3, the Kd in assay [1] was 0.031 µM. Also, the “Masking Efficiency” value in assay [2] was determined as 17.

B4: PD-1 1.5 PD016 2001 (antibody, human IgG4 S228P, kappa)
heavy: not shown
light: QGQSGQGVLCAAYALSSGICGGGGGSSGGSISSGLLSGRSDNHGGGSDIQLTQSPSSLSASVGDRVTITCRASESVDAYGISFMNWFQQKPGKAPKLLIYAASNQGSGVPSRFSGSGSGTDFTLTISSMQPEDFATYYCQQSKDVPWTFGQGTKLEIKRTVAAPSVFIFPPSDEQLKSGTASVVCLLNNFYPREAKVQWKVDNALQSGNSQESVTEQDSKDSTYSLSSTLTLSKADYEKHKVYACEVTHQGLSSPVTKSFNRGEC
Consider B4, for which the Kd in assay [1] amounted to 0.057 µM. The “Masking Efficiency” value in assay [2] is 32.

B5: PD-1 1.5 PD003 2001 (antibody, human IgG4 S228P, kappa)
heavy: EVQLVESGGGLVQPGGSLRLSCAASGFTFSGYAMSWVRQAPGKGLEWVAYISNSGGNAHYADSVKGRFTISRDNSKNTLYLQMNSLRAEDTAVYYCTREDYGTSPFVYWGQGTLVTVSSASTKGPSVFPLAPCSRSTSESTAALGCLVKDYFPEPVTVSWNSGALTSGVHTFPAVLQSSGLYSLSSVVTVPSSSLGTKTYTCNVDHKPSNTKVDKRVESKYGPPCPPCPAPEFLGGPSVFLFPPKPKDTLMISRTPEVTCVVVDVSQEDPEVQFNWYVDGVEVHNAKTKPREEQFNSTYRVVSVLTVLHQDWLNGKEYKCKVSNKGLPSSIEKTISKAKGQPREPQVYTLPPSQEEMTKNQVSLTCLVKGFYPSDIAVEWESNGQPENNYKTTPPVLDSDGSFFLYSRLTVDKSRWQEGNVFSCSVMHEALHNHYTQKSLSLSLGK
light: QGQSGQGLVCPLYALSSGVCMGGGGSSGGSISSGLLSGRSDNHGGGSDIQLTQSPSSLSASVGDRVTITCRASESVDAYGISFMNWFQQKPGKAPKLLIYAASNQGSGVPSRFSGSGSGTDFTLTISSMQPEDFATYYCQQSKDVPWTFGQGTKLEIKRTVAAPSVFIFPPSDEQLKSGTASVVCLLNNFYPREAKVQWKVDNALQSGNSQESVTEQDSKDSTYSLSSTLTLSKADYEKHKVYACEVTHQGLSSPVTKSFNRGEC
For the molecule B5, in assay [1], the Kd was 0.109 µM. Besides, the “Masking Efficiency” value in assay [2] turned out to be 61.

B6: PD-1 1.5 PD020 2001 (antibody, human IgG4 S228P, kappa)
heavy: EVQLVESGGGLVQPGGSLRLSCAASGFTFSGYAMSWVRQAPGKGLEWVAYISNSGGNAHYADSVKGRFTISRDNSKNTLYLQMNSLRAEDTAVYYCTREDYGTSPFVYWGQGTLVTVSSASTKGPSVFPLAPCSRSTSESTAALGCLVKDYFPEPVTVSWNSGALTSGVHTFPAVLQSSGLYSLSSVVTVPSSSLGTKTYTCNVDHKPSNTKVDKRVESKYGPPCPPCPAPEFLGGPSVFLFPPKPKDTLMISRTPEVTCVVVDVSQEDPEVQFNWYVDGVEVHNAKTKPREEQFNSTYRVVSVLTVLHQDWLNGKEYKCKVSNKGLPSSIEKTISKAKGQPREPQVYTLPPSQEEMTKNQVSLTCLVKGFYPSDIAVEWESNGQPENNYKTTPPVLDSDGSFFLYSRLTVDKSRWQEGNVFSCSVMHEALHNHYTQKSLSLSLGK
light: QGQSGQGSVCPMYALSSMLCGAGGGSSGGSISSGLLSGRSDNHGGGSDIQLTQSPSSLSASVGDRVTITCRASESVDAYGISFMNWFQQKPGKAPKLLIYAASNQGSGVPSRFSGSGSGTDFTLTISSMQPEDFATYYCQQSKDVPWTFGQGTKLEIKRTVAAPSVFIFPPSDEQLKSGTASVVCLLNNFYPREAKVQWKVDNALQSGNSQESVTEQDSKDSTYSLSSTLTLSKADYEKHKVYACEVTHQGLSSPVTKSFNRGEC
For the molecule B6, the Kd in assay [1] was 0.077 µM. For the same molecule, in assay [2], the “Masking Efficiency” value worked out at 43.

B7: PD-1 1.5 PD013 2001 (antibody, human IgG4 S228P, kappa)
heavy: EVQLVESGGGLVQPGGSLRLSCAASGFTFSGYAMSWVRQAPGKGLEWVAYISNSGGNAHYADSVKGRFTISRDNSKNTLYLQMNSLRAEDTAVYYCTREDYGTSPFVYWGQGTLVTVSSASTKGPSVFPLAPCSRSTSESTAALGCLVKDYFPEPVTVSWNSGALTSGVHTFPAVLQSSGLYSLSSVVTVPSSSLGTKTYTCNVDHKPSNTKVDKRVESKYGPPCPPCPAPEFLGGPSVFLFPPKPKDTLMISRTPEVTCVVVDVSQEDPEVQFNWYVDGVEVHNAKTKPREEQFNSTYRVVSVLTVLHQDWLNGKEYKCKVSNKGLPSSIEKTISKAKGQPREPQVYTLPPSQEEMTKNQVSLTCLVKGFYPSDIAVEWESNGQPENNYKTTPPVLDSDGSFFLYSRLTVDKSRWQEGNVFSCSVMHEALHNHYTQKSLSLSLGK
light: QGQSGQGSCPLYVMSSFGGCWDGGGSSGGSISSGLLSGRSDNHGGGSDIQLTQSPSSLSASVGDRVTITCRASESVDAYGISFMNWFQQKPGKAPKLLIYAASNQGSGVPSRFSGSGSGTDFTLTISSMQPEDFATYYCQQSKDVPWTFGQGTKLEIKRTVAAPSVFIFPPSDEQLKSGTASVVCLLNNFYPREAKVQWKVDNALQSGNSQESVTEQDSKDSTYSLSSTLTLSKADYEKHKVYACEVTHQGLSSPVTKSFNRGEC
Turning to B7, the Kd in assay [1] amounted to 0.151 µM. Moreover, the “Masking Efficiency” value in assay [2] turned out to be 84.

B8: PD-1 1.5 PD008 2001 (antibody, human IgG4 S228P, kappa)
heavy: not shown
light: QGQSGQGETCNQYERSSGLCFAGGGSSGGSISSGLLSGRSDNHGGGSDIQLTQSPSSLSASVGDRVTITCRASESVDAYGISFMNWFQQKPGKAPKLLIYAASNQGSGVPSRFSGSGSGTDFTLTISSMQPEDFATYYCQQSKDVPWTFGQGTKLEIKRTVAAPSVFIFPPSDEQLKSGTASVVCLLNNFYPREAKVQWKVDNALQSGNSQESVTEQDSKDSTYSLSSTLTLSKADYEKHKVYACEVTHQGLSSPVTKSFNRGEC
As for B8, the Kd in assay [1] stood at 0.055 µM. Also, in assay [2], the “Masking Efficiency” value was determined as 31.

B9: PD-1 1.5 PD015 2001 (antibody, human IgG4 S228P, kappa)
heavy: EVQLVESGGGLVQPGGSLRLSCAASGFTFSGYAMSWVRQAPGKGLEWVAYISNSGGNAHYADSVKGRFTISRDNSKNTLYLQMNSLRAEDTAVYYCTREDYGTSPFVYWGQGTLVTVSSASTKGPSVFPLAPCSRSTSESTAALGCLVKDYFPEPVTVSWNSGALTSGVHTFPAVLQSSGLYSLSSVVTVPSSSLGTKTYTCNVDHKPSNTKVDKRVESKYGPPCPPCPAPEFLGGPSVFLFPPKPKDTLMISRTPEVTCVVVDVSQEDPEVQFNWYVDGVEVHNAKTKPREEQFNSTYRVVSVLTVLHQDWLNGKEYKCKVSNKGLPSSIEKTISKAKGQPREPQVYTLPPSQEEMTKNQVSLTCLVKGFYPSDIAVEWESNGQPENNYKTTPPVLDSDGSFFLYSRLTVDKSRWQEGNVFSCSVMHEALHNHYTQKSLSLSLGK
light: QGQSGQGVSYCTWLIEVTCLRGGGGSSGGSISSGLLSGRSDNHGGGSDIQLTQSPSSLSASVGDRVTITCRASESVDAYGISFMNWFQQKPGKAPKLLIYAASNQGSGVPSRFSGSGSGTDFTLTISSMQPEDFATYYCQQSKDVPWTFGQGTKLEIKRTVAAPSVFIFPPSDEQLKSGTASVVCLLNNFYPREAKVQWKVDNALQSGNSQESVTEQDSKDSTYSLSSTLTLSKADYEKHKVYACEVTHQGLSSPVTKSFNRGEC
Regarding B9, in assay [1], the Kd worked out at 0.117 µM. In addition, in assay [2], the “Masking Efficiency” value was 65.

B10: PD-1 1.5 PD01 2001 (antibody, human IgG4 S228P, kappa)
heavy: not shown
light: QGQSGQGAMSGCSWSAFCPYLAGGGSSGGSISSGLLSGRSDNHGGGSDIQLTQSPSSLSASVGDRVTITCRASESVDAYGISFMNWFQQKPGKAPKLLIYAASNQGSGVPSRFSGSGSGTDFTLTISSMQPEDFATYYCQQSKDVPWTFGQGTKLEIKRTVAAPSVFIFPPSDEQLKSGTASVVCLLNNFYPREAKVQWKVDNALQSGNSQESVTEQDSKDSTYSLSSTLTLSKADYEKHKVYACEVTHQGLSSPVTKSFNRGEC
As for B10, the Kd in assay [1] turned out to be 0.348 µM. The “Masking Efficiency” value in assay [2] is 193.

B11: A1.5 (antibody, human IgG4 S228P, kappa)
heavy: not shown
light: DIQLTQSPSSLSASVGDRVTITCRASESVDAYGISFMNWFQQKPGKAPKLLIYAASNQGSGVPSRFSGSGSGTDFTLTISSMQPEDFATYYCQQSKDVPWTFGQGTKLEIKRTVAAPSVFIFPPSDEQLKSGTASVVCLLNNFYPREAKVQWKVDNALQSGNSQESVTEQDSKDSTYSLSSTLTLSKADYEKHKVYACEVTHQGLSSPVTKSFNRGEC
notes: humanized, full length hIgG4/hKappa; also called A1.5 Ab
In the case of B11, the Kd in assay [1] amounted to 0.0018 µM.

B12: PD-1 1.5 PD021 2001 (antibody, human IgG4 S228P, kappa)
heavy: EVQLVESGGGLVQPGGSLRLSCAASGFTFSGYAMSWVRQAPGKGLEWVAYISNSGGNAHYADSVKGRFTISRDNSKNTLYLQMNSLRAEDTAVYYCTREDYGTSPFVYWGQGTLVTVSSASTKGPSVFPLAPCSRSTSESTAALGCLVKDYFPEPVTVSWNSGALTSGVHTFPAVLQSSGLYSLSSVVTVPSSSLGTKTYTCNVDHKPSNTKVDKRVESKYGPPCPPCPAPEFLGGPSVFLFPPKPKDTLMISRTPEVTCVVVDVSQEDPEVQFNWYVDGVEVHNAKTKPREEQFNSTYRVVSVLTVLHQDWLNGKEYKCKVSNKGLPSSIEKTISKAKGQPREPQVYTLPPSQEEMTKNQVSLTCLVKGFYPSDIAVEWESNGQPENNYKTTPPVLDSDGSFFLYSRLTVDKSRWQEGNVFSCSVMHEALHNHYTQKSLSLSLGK
light: QGQSGQGLSVECYVFSRCSSLPGGGSSGGSISSGLLSGRSDNHGGGSDIQLTQSPSSLSASVGDRVTITCRASESVDAYGISFMNWFQQKPGKAPKLLIYAASNQGSGVPSRFSGSGSGTDFTLTISSMQPEDFATYYCQQSKDVPWTFGQGTKLEIKRTVAAPSVFIFPPSDEQLKSGTASVVCLLNNFYPREAKVQWKVDNALQSGNSQESVTEQDSKDSTYSLSSTLTLSKADYEKHKVYACEVTHQGLSSPVTKSFNRGEC
As to B12, the Kd in assay [1] was determined as 0.049 µM. Also, the “Masking Efficiency” value in assay [2] was 27.

B13: PD-1 1.5 PD002 2001 (antibody, human IgG4 S228P, kappa)
heavy: not shown
light: QGQSGQGDVNCAIWYSVCTTVPGGGSSGGSISSGLLSGRSDNHGGGSDIQLTQSPSSLSASVGDRVTITCRASESVDAYGISFMNWFQQKPGKAPKLLIYAASNQGSGVPSRFSGSGSGTDFTLTISSMQPEDFATYYCQQSKDVPWTFGQGTKLEIKRTVAAPSVFIFPPSDEQLKSGTASVVCLLNNFYPREAKVQWKVDNALQSGNSQESVTEQDSKDSTYSLSSTLTLSKADYEKHKVYACEVTHQGLSSPVTKSFNRGEC
With B13, the Kd in assay [1] was 0.021 µM. Also, in assay [2], the “Masking Efficiency” value was found to be 12.

B14: PD-1 1.5 PD005 2001 (antibody, human IgG4 S228P, kappa)
heavy: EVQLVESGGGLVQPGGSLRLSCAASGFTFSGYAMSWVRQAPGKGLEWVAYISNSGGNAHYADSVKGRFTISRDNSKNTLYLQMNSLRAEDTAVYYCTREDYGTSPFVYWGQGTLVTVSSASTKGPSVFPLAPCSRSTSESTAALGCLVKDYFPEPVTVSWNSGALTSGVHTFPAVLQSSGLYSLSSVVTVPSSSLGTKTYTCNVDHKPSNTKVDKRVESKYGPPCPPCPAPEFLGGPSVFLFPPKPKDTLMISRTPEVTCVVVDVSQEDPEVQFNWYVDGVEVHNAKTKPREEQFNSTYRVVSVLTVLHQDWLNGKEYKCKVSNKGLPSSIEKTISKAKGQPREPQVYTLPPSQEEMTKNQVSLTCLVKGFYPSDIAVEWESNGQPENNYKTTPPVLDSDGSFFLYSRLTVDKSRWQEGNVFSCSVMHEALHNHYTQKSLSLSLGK
light: QGQSGQGMLVCSLQPTAMCERVGGGSSGGSISSGLLSGRSDNHGGGSDIQLTQSPSSLSASVGDRVTITCRASESVDAYGISFMNWFQQKPGKAPKLLIYAASNQGSGVPSRFSGSGSGTDFTLTISSMQPEDFATYYCQQSKDVPWTFGQGTKLEIKRTVAAPSVFIFPPSDEQLKSGTASVVCLLNNFYPREAKVQWKVDNALQSGNSQESVTEQDSKDSTYSLSSTLTLSKADYEKHKVYACEVTHQGLSSPVTKSFNRGEC
Take B14: in assay [1], the Kd stood at 0.068 µM. Moreover, in assay [2], the “Masking Efficiency” value stood at 38.

B15: PD-1 1.5 PD011 2001 (antibody, human IgG4 S228P, kappa)
heavy: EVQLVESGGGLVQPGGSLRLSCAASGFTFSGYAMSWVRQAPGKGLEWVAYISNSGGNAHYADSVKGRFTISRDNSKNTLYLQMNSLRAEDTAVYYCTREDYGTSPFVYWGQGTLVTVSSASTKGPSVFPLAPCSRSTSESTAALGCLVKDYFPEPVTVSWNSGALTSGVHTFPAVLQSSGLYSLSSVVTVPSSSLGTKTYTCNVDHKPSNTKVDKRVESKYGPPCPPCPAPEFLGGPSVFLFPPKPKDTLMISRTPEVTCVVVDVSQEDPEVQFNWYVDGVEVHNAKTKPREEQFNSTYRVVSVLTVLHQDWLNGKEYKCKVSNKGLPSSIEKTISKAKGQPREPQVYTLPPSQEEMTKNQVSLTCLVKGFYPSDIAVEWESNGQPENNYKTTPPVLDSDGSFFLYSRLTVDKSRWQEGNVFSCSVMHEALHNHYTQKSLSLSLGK
light: QGQSGQGVPWCQLTPRVMCMWAGGGSSGGSISSGLLSGRSDNHGGGSDIQLTQSPSSLSASVGDRVTITCRASESVDAYGISFMNWFQQKPGKAPKLLIYAASNQGSGVPSRFSGSGSGTDFTLTISSMQPEDFATYYCQQSKDVPWTFGQGTKLEIKRTVAAPSVFIFPPSDEQLKSGTASVVCLLNNFYPREAKVQWKVDNALQSGNSQESVTEQDSKDSTYSLSSTLTLSKADYEKHKVYACEVTHQGLSSPVTKSFNRGEC
For B15, the Kd in assay [1] was found to be 0.067 µM. In addition, in assay [2], the “Masking Efficiency” value amounted to 37.

B16: PD-1 1.5 PD024 2001 (antibody, human IgG4 S228P, kappa)
heavy: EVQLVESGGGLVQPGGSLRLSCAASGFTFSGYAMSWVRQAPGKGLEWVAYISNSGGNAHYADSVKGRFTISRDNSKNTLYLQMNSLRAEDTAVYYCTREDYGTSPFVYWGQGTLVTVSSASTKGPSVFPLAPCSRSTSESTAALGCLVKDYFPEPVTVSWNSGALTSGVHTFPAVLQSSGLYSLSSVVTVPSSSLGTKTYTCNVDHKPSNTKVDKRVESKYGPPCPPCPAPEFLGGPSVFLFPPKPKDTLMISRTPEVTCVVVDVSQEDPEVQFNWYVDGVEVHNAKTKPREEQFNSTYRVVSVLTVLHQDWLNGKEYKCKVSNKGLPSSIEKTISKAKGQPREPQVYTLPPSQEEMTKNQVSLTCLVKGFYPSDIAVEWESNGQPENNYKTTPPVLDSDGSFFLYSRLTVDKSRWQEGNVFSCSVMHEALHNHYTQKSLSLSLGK
light: QGQSGQGIYSCYMFASRCTSDKGGGSSGGSISSGLLSGRSDNHGGGSDIQLTQSPSSLSASVGDRVTITCRASESVDAYGISFMNWFQQKPGKAPKLLIYAASNQGSGVPSRFSGSGSGTDFTLTISSMQPEDFATYYCQQSKDVPWTFGQGTKLEIKRTVAAPSVFIFPPSDEQLKSGTASVVCLLNNFYPREAKVQWKVDNALQSGNSQESVTEQDSKDSTYSLSSTLTLSKADYEKHKVYACEVTHQGLSSPVTKSFNRGEC
On to B16, for which the Kd in assay [1] is 0.092 µM. Also, the “Masking Efficiency” value in assay [2] came to 51.

B17: PD-1 1.5 PD018 2001 (antibody, human IgG4 S228P, kappa)
heavy: not shown
light: QGQSGQGAPRCYMFASYCKSQYGGGSSGGSISSGLLSGRSDNHGGGSDIQLTQSPSSLSASVGDRVTITCRASESVDAYGISFMNWFQQKPGKAPKLLIYAASNQGSGVPSRFSGSGSGTDFTLTISSMQPEDFATYYCQQSKDVPWTFGQGTKLEIKRTVAAPSVFIFPPSDEQLKSGTASVVCLLNNFYPREAKVQWKVDNALQSGNSQESVTEQDSKDSTYSLSSTLTLSKADYEKHKVYACEVTHQGLSSPVTKSFNRGEC
For B17, the Kd in assay [1] worked out at 0.075 µM. In addition, the “Masking Efficiency” value in assay [2] worked out at 42.
